Measurements from publication PMC9968005, “Therapeutic Performance Evaluation of ^213Bi-Labelled Aminopeptidase N (APN/CD13)-Affine NGR-Motif ([^213Bi]Bi-DOTAGA-cKNGRE) in Experimental Tumour Model: A Treasured Tailor for Oncology” (Pharmaceutics, 2023).

What was measured:
in vivo = assay: in vivo; parameters: species or system CB17 SCID mice; conditions: CB17 SCID, mouse, 5 MBq, total radioactivity
Protocol: (§1) Experimental tumour induction was carried out under inhalation anaesthesia with a dedicated small animal anaesthesia device (Tec3 Isoflurane Vaporizer, Eickemeyer Veterinary Equipment, Luton, UK) applying 3% isoflurane (Forane, AbbVie, Chicago, IL, USA), 0.4 L/min O2 and 1.4 L/min N2O. This was followed by depilation and disinfection subcutaneous (s.c.) inoculation of 1.5 × 10^6 HT1080 (human fibrosarcoma) cells in 100 μL (1/3 part of Matrigel and 2/3 part of saline) into the left shoulder area of the CB17 SCID mice. For tumour verification the study mice underwent in vivo [^68Ga]Ga-DOTAGA-cKNGRE-based PET imaging 10 ± 1 days post tumour cell inoculation. To evaluate the organ distribution pattern of the ^213Bi-labelled therapeutic peptide compounds, ex vivo biodistribution studies were also executed 10 ± 1 days following the HT1080 cell transplantation at an average tumour volume of 155 ± 20 mm^3. Thereafter, tumour sizes based on the largest and the smallest tumour diameters were registered ((largest diameter × smallest diameter^2)/2). We used calliper measurements for tumour growth determination.
To assess the organ distribution of [^213Bi]Bi-DOTAGA-cKNGRE, ex vivo investigations were performed. The HT1080 fibrosarcoma-bearing experimental mice were anaesthetised with Forane (5%) and were sacrificed at 30 and 90 min post administration of the radiopharmaceutical. After autopsy, selected tissues, organs and the tumour itself were removed, weighed wet and their radioactivity was measured on a calibrated gamma counter (Perkin-Elmer Packard Cobra, Waltham, MA, USA). Then, the activity was decay corrected to the time of the injection. The percent of administered dose per gram of tissue (%ID/g) was determined for all samples from the counts per minute values (CPM). We presented the ex vivo data as mean %ID/g ± SD.

HT1080 fibrosarcoma = assay: Cancer treatment study: tumour volume; assay type: in vivo, CB17 SCID mice; conditions: approximately 5 MBq i.p. on days 7, 8, 10, 12, calliper, mean ± SD
Protocol: as §1
Seven days after HT1080 cell inoculation the tumour-bearing animals were randomly classified into two subgroups: treatment-naïve group (control, n = 8) and [^213Bi]Bi-DOTAGA-cKNGRE-treated group (treated, n = 8). Approximately 5 MBq [^213Bi]Bi-DOTAGA-cKNGRE was intraperitoneally (i.p.) administered to the experimental mice of the treated cohort on the 7th, 8th, 10th and 12th experimental days. The control mice were i.p. injected with 150 μL saline solution applying the same time regime.
On the 7th, 8th, 10th and 12th days of the investigation at an average tumour volume of 26.56 ± 2.39 mm^3 CB17 SCID mice bearing HT1080 fibrosarcoma in their left shoulder area were i.p. injected with approximately 5 MBq [^213Bi]Bi-DOTAGA- cKNGRE. The treatment-naïve study mice i.p. received 150 μL saline solution on the same experimental days. In a bid to assess the therapeutic efficacy of the investigated probe, body weights (BW, expressed in grams/g ± SD) and tumour volume (mm^3 ± SD) of the small animals were registered. Calliper measurements were applied to evaluate tumour development.

[1] = LogP measurement of [205/206Bi]Bi-DOTAGA-cKNGRE (n-octanol/water); assay type: physicochemical; conditions: shake-flask n-octanol/water, 205/206Bi as surrogates for 213Bi, 10 µL tracer in saline + 0.49 mL water + 0.5 mL n-octanol, shaken 5 min, centrifuged 6000 rpm 5 min, gamma counter
Protocol: For the determination of LogP value we used ^205/206Bi isotopes as surrogates which were produced by GE PETtrace cyclotron using the method described by Lagunas-Solar et al.. The radiolabelling of the precursor was carried out as follows: 50 µL of 3 M NH4OAc buffer (pH 4) and 15 µL of 6 mM DOTAGA-cKNGRE aqueous solution were added to 50 µL [^205/206Bi]BiCl3 in 0.1 M HCl. The labelled complex was purified as described above. Then 10 µL of the purified [^205/206Bi]Bi-DOTAGA-cKNGRE in physiological saline (Salsol, TEVA, Debrecen, Hungary) was diluted with 0.49 mL water. It was then mixed with 0.5 mL n-octanol in a vial and shaken for 5 min. After centrifugation (6000 rpm, 5 min) the radioactivity of the sample from both the aqueous and n-octanol phase was measured with a Perkin Elmer Packard Cobra gamma counter. The LogP value was −2.59.

[2] = Serum stability of [205/206Bi]Bi-DOTAGA-cKNGRE; assay type: in vitro ADME; conditions: mouse plasma (heading says serum); 50 µL tracer in saline + 50 µL mouse plasma, 90 min, radio-iTLC; read-out: RCP after 90 min incubation in serum
Protocol: Fifty μL of [^205/206Bi]Bi-DOTAGA-Bn-cKNGRE in physiological saline (Salsol, TEVA, Debrecen, Hungary) was added to the solution of fifty μL of mouse plasma. The RCP of the samples was determined by radio-iTLC at 0, 30, 60 and 90 min time points using the same method as described above. After 90 min the [^205/206Bi]Bi-DOTAGA-Bn-cKNGRE remained intact as the RCP of the sample taken from the mixture was above 95%, which meets the requirements for ^213Bi-labelled radiopharmaceuticals.

[3] = system: CD13pos. HT1080 fibrosarcoma; conditions: mouse, in vivo; cited from earlier work
Protocol: The tumour-targeting potential of [^213Bi]Bi-DOTAGA-cKNGRE was also evaluated in HT1080 tumour-bearing CB17 mice. […] Although the tumourous tracer activity decreased from 30 to 90 min post-administration, relatively higher accumulation of the HT1080 neoplasms compared with the other organs at 90 min time point yields better tumour-to-background (T/M) ratios and image contrast. The tumour-to-organs ratio is ...

`N=C(N)NCCC[C@@H]1NC(=O)CNC(=O)[C@H](CC(N)=O)NC(=O)[C@H](CCCCNC(=S)Nc2ccc(CNC(=O)CCC(C(=O)O)N3CCN(CC(=O)O)CCN(CC(=O)O)CCN(CC(=O)O)CC3)cc2)NC(=O)CC[C@@H](C(N)=O)NC1=O` (some centres unmarked) [[^213Bi]Bi-DOTAGA-cKNGRE, metal not drawn] showed a tissue uptake at 0.5 h (in vivo; HT1080 tumor) of 1.48 ± 0.18 %ID/g, a tissue uptake at 1.5 h (in vivo; HT1080 tumor) of 0.8 ± 0.16 %ID/g and a tissue uptake at 0.5 h (in vivo; blood) of 2.72 ± 0.22 %ID/g. For the same compound, the tissue uptake at 0.5 h (in vivo; bone (femur)) was 0.69 ± 0.38 %ID/g, the tissue uptake at 0.5 h (in vivo; fat) was 0.72 ± 0.05 %ID/g and the tissue uptake at 0.5 h (in vivo; kidney) was 11.4 ± 1.41 %ID/g. The tissue uptake at 1.5 h (in vivo; kidney) was 4.51 ± 1.21 %ID/g, the tissue uptake at 0.5 h (in vivo; lung) was 2.09 ± 0.74 %ID/g and the tissue uptake at 1.5 h (in vivo; muscle) was 0.06 ± 0.02 %ID/g. It also gave a tissue uptake at 0.5 h (in vivo; pancreas) of 0.57 ± 0.18 %ID/g, a tissue uptake at 1.5 h (in vivo; pancreas) of 0.08 ± 0.03 %ID/g and a tissue uptake at 0.5 h (in vivo; stomach) of 0.73 ± 0.04 %ID/g. It also gave a tumour volume (HT1080 fibrosarcoma; day 7) of 28.25 ± 2.67 mm^3, a tumour volume (HT1080 fibrosarcoma; day 8) of 23.33 ± 6.87 mm^3 and a tumour volume (HT1080 fibrosarcoma; day 9, p ≤ 0.01 vs untreated) of 35.36 ± 7.57 mm^3. It also gave a tumour volume (HT1080 fibrosarcoma; day 10, p ≤ 0.01 vs untreated) of 58.33 ± 14.36 mm^3 and a tumour volume (HT1080 fibrosarcoma; day 12, p ≤ 0.01 vs untreated) of 112.50 ± 18.42 mm^3.
In the case of `N=C(N)NCCC[C@@H]1NC(=O)CNC(=O)[C@H](CC(N)=O)NC(=O)[C@H](CCCCNC(=S)Nc2ccc(CNC(=O)CCC(C(=O)O)N3CCN(CC(=O)O)CCN(CC(=O)O)CCN(CC(=O)O)CC3)cc2)NC(=O)CC[C@@H](C(N)=O)NC1=O` (some centres unmarked) [[^205/206Bi]Bi-DOTAGA-cKNGRE], the LogP value [1] is reported as −2.59 and the remaining at 1.5 h [2] is reported as > 95%.
In the case of “^68Ga-NOTA-Gly3-CNGRC [[^68Ga]Ga-NOTA-G3-NGR, ^68Ga-tagged CD13-affine peptide derivate, literature PET tracer]”, the tumour accumulation [3] is given as 4.96 ± 3.18 ID%/g.
